Test results published in patent US20220281980A1 (Bristol-Myers Squibb, published 2022).

T1: recombinant soluble human MICA*008 antigen (human, UniProt Q29983 24-307)
T1 construct: also called huIMICA-his allele *008; recombinant soluble MICA (allele 8)
T1 chain: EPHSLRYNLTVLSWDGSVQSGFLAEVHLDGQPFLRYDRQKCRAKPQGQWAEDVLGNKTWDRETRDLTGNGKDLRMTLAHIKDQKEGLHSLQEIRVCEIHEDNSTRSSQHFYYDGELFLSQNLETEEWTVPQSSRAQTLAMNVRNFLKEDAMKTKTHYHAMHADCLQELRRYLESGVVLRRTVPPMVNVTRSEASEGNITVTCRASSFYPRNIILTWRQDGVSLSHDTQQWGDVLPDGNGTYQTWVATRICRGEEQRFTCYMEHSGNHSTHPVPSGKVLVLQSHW

T2: recombinant soluble human MICA*004 antigen (human, UniProt Q29983 24-307)
T2 construct: also called huIMICA-his allele *004
T2 chain: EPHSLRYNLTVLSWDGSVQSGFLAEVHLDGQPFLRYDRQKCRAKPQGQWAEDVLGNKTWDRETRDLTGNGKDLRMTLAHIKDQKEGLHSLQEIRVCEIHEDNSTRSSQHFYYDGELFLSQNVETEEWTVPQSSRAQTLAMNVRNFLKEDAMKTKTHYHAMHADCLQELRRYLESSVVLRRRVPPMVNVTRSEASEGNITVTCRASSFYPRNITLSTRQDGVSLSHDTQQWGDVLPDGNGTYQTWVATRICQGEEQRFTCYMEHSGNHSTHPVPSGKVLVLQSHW

T3: recombinant soluble human MICA*002 antigen (human, UniProt Q29983 24-307)
T3 construct: also called huIMICA-his allele *002
T3 chain: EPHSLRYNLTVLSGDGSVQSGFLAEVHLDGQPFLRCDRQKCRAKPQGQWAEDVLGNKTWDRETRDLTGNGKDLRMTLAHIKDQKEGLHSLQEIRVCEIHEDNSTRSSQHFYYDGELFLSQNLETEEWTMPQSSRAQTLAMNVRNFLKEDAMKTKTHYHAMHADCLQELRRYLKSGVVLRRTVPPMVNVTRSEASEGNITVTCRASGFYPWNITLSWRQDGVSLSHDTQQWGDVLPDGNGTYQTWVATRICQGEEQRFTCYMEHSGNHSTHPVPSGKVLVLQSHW

T4: recombinant soluble human MICA*009 antigen (human, UniProt Q29983 24-307)
T4 construct: also called huIMICA-his allele *009
T4 chain: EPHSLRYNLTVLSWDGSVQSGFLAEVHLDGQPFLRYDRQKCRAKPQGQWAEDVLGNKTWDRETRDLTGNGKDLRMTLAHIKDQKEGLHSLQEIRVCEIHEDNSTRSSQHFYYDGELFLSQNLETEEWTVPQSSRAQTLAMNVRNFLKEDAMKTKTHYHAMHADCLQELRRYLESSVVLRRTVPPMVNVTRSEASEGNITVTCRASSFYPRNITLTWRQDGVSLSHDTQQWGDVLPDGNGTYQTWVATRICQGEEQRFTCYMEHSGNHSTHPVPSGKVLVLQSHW


Experiments:
[1] = target: T1, recombinant soluble human MICA*008 …; assay: BLI (Octet) sandwich binning on soluble MICA allele 8, row antibody captured; competitor (second antibody): MICA.36
Description: (§1) The binning experiments were performed on an Octet HTX instrument at 25° C. in HEPES buffered saline (10 mM HEPES pH 7.4, 150 mM NaCl, 0.05% v/v surfactant P20, and 1 mg/mL BSA). Anti-MICA/B antibodies and NKG2D-mFc were captured on anti-Fc tips and remaining capture sites were blocked with an excess of negative control IgG. Recombinant soluble MICA (allele 8) was bound and subsequent binding (“sandwiching”) of anti-MICA/B antibodies was tested.

[2] = target: T1, recombinant soluble human MICA*008 …; assay: BLI (Octet) sandwich binning on soluble MICA allele 8, row antibody captured; competitor (second antibody): MICA.39
Description: as §1

[3] = target: T1, recombinant soluble human MICA*008 …; assay: BLI (Octet) sandwich binning on soluble MICA allele 8, row antibody captured; competitor (second antibody): 24G11
Description: as §1

[4] = target: T2, recombinant soluble human MICA*004 …; assay: SPR (Biacore 3000), antibody captured on Protein G chip, huMICA-his analyte
Description: (§2) Kinetics and affinity of anti-MICA/B antibodies MICA.2, 19G6, 16A5, and 71C2 towards human MICA alleles (huIMICA-his allele *002, *004, *008, and *009) were also determined on a BIACORE 3000® instrument using the following conditions: [0571] Running Buffer: HES-EP running buffer [0572] Chip: CM5 Protein G Chip Fc1: Blank. Fc2-4: ˜200Rus [0573] Ab: 5 ug/mL, 10 uL @ 10 uL/min [0574] Ag binding: 5 min association, 7 min dissociation @ 25 uL/min, [0575] Regeneration: Glycine 1.7, 10 uL @ 100 uL/min followed by 60s wash by HES-EP

[5] = target: T1, recombinant soluble human MICA*008 …; assay: as above
Description: as §2

[6] = target: T3, recombinant soluble human MICA*002 …; assay: as above
Description: as §2

[7] = target: T4, recombinant soluble human MICA*009 …; assay: as above
Description: as §2

[8] = target: T1, recombinant soluble human MICA*008 …; assay: BLI (Octet) sandwich binning on soluble MICA allele 8, row antibody captured; competitor (second antibody): MICA.40
Description: as §1

[9] = target: T1, recombinant soluble human MICA*008 …; assay: BLI (Octet) sandwich binning on soluble MICA allele 8, row antibody captured; competitor (second antibody): MICA.38
Description: as §1

[10] = target: T1, recombinant soluble human MICA*008 …; assay: BLI (Octet) sandwich binning on soluble MICA allele 8, row antibody captured; competitor (second antibody): MICA.2
Description: as §1

| Binder | simultaneous binding (0 = no, 1 = yes) [1] | simultaneous binding (0 = no, 1 = yes) [2] | simultaneous binding (0 = no, 1 = yes) [3] | Kd [4] | Kd [5] | Kd [6] | Kd [7] | simultaneous binding (0 = no, 1 = yes) [8] | simultaneous binding (0 = no, 1 = yes) [9] | simultaneous binding (0 = no, 1 = yes) [10] |
| --- | --- | --- | --- | --- | --- | --- | --- | --- | --- | --- |
| MICA.2 (antibody, human IgG1, kappa, V domains shown, 3F5 variable regions on human IgG1f and human kappa constant regions, made in CHO-S cells; also called 3F5; recombinant antibody of 3F5) VH: EVQLVESGGGLVQPGGSLRLSCAASGFTFSTYSMNWVRQAPGKGLEWVSYISYRSRTIYYADSVKGRFTISRDNARNSLYLQMNSLRDEDTAVYYCARWGYGSGGFDYWGQGTLVTVSS VL: not shown | 1 | 0 | 1 | 54.6 nM | 40.5 nM | 27.5 nM | 61.5 nM | 0 | 0 | 0 |
| 24G11 (antibody, V domains shown, also called MICA.54; 24G11 (MICA.54)) VH: EVQLVQSGAEVKKPGESLKISCKGSGYSFTNYWIGWVRQMPGKGLEWLGIIHPGDSYTRYSPSFQGQVTISADKSISTAYLQWSSLKASDTAIYYCAREGIAATPFDYWGQGTLVTVSS VL: EIVLTQSPATLSLSPGERATLSCRASQSVSSYLAWFQQKPGQAPRLLIYDASNRATGIPARFSGSGSGTDFTLTISSLEPEDFAVYYCQQRSNWPPTFGQGTKVEIK | 0 | 1 | 0 | – | – | – | – | 1 | 1 | 1 |
| MICA.36 (antibody, V domains shown, it says that the name implies no specific constant region; Radioiodinated in the Scatchard assay; also called MICA.36 antibody) VH: QVQLVESGGGVVQPGRSLRLSCAASGFTFSNYAMHWVRQAPGEGLEWVALIWYDGSNKFYGDSVKGRFTISRDNSKNTLYLQMNSLSAEDTAVYYCAREGSGHYWGQGTLVTVSS VL: AIQLTQSPSSLSASVGDRVTITCRASQGISSALAWYQQKPGKVPKSLIYDASSLESGVPSRFSGSGSGTDFTLTISSLQPEDFATYYCQQFNSYPITFGQGTRLEIK | 0 | 1 | 0 | – | – | – | – | 1 | 1 | 1 |
| 19G6 (antibody, V domains shown, Hybridoma antibody from human IgG transgenic mice, parent of MICA.36; also called 19G6 mAb; hybridoma 19G6) VH: QVQLVESGGGVVQPGRSLRLSCAASGFTFSNYAMHWVRQAPGEGLEWVALIWYDGSNKFYGDSVKGRFTISRDNSKNTLYLQMNSLSAEDTAVYYCAREGSGHYWGQGTLVTVSS VL: AIQLTQSPSSLSASVGDRVTITCRASQGISSALAWYQQKPGKVPKSLIYDASSLESGVPSRFSGSGSGTDFTLTISSLQPEDFATYYCQQFNSYPITFGQGTRLEIK | – | – | – | 9.78 nM | 5.23 nM | 219 nM | 13.7 nM | – | – | – |
| 71C2 (antibody, V domains shown, Hybridoma antibody) VH: EVQLVESGGGLVQPGRSLRLSCAASGFTFNNYAMHWVRQAPGKGLEWVSGITWNSDSIGYADSVKGRFTISRDNAKNSLYLQMNSLRAEDTALYYCAKDSVLLWFGGMDVWGQGTTVTVSS VL: not shown | – | – | – | 262 nM | 39.9 nM | 3010 nM | 1400 nM | – | – | – |
